Biological target: Fluorescently labeled ATS (intracellular segment) of PfEMP1 variant PF08_0141, full-length segment (P. falciparum)
Assay: fluorescence polarisation

Substance: PFE1605w PHIST domain (residues 122–335) (domain or fragment)
- Kd: 5 µM

Reference: article PMC4202109
